The values below come from publication PMC4180279.

Broadly, the Kd is the concentration at which binding is half-saturated.

For assay [1], the target named is Cav2.1 P/Q-type calcium channel IQ domain (Homo sapiens) (UniProt O00555). Briefly: ITC. Particulars: cited from earlier work.
Assay [2] addresses GST-P/Q, residues 1898-2035 of the rat P/Q channel α1 subunit (Cav2.1) C-terminal tail (rat). Put plainly: pull-down; 5 μM GST fusion protein immobilised on glutathione-agarose; 5 μM GST-free NCS-1 or CaM added; 150 mM KCl, 20 mM HEPES pH 7.4, 10% glycerol, 5 mM NTA, 5 mM EGTA, 1 mM DTT, 0.1% NP-40, with 1 μM free Ca2+; 1 h, 4 °C; Western blot, densitometry normalised to NCS-1 on GST-PQ with Ca2+ = 100%.

Chain of Cav2.1 P/Q-type calcium channel IQ domain (Homo sapiens) (O00555 1963-1983): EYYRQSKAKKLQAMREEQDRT
Chain of Neuronal calcium sensor-1 (NCS-1), GST-free recombinant protein from the GST-NCS-1 plasmid (P62166 whole entry): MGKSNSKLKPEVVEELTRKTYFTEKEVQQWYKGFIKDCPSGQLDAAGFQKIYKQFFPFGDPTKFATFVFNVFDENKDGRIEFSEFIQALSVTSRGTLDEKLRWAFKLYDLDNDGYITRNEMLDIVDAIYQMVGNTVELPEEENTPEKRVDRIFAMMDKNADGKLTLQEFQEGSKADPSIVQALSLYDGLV

Turning to “calmodulin C lobe C lobe (from UniProt P0DP23)”, in assay [1], the Kd was 4.32 nM. Substance “Neuronal calcium sensor-1 (NCS-1), GST-free recombinant protein from the GST-NCS-1 plasmid (from UniProt P62166 1-190) (natural protein)” showed an average NCS-1 bound (%) in assay [2] of 100%.
